Source: the supplement of paper PMC9732359
± gives the uncertainty stated by the source.

Test: protein stability index of a GFP-peptide fusion (yeast GPS) (PSI 1-4); higher = more stable; sorted into four equal gates, so the index is relative within each strain
Method in brief: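 Peptides tiling yeast proteins in 17-residue segments were fused downstream of GFP, with Cherry expressed from the same plasmid. As a pooled library in yeast, mid-log cultures grown in leucine-free medium were sorted into four equal gates by GFP/Cherry fluorescence ratio. Gate plasmids were PCR-amplified and Illumina-sequenced, and barcodes linked reads to strains. Each peptide received a protein stability index equal to the sum of each gate's read frequency times its gate number.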

Sequence	protein stability index (doa10∆)	protein stability index (pdr5∆)	protein stability index (san1∆)	protein stability index (ubr1∆)
KRVTKVKRLLFTIRGFK [MTW1]	2.34 ± 0.057	2.52 ± 0.043	2.14 ± 0.057	2.54 ± 0.042
TSSTHERKSKTYVITKN [RET1]	2.44 ± 0.067	2.66 ± 0.08	2.3 ± 0.064	2.84 ± 0.076
GTPPMLHQRTHKQVYPL [DSN1]	2.52 ± 0.1	2.87 ± 0.069	2.77 ± 0.071	2.93 ± 0.056
ELWRKEQKLQTVLETLL [SMC3]	2.9 ± 0.13	3.42 ± 0.11	2.7 ± 0.17	3.31 ± 0.064
WKPNPSYDVENVNSRNQ [SRB5]	2.96 ± 0.084	2.95 ± 0.14	3 ± 0.11	3.3 ± 0.085
KSLKNNFYRPLLRSVLV [YML103C/NUP188]	1.94 ± 0.051	1.87 ± 0.075	2.04 ± 0.085	2.29 ± 0.051
KLKDSKKLFQKKENLTR [YML103C/NUP188]	2.57 ± 0.12	3.3 ± 0.1	2.97 ± 0.11	3.25 ± 0.1
GYDKKKNKPELYQIDYL [PRE1]	3.04 ± 0.086	2.91 ± 0.098	3.02 ± 0.066	3.08 ± 0.09
QANQVKRHSYAQSSHIR [RPS1A]	2.528 ± 0.023	2.622 ± 0.021	2.564 ± 0.025	2.471 ± 0.019
IENMTKEKVSNGGVGVD [FAS2]	3.23 ± 0.088	3.16 ± 0.1	3.33 ± 0.087	3.11 ± 0.063
VRIDKALELDDTVVSRV [ECM29]	2.92 ± 0.11	2.91 ± 0.15		3.13 ± 0.097
TSTGIIRCHREDCDLVI [POP5]	2.67 ± 0.071	2.96 ± 0.077	2.71 ± 0.075	2.56 ± 0.066
GGIETILEHTLFKGTGF [PRP8]	3.3 ± 0.22	3.28 ± 0.21	3.21 ± 0.14	3.47 ± 0.13
GETMWVPIKSSKSGRIF [RPN13]	2.3 ± 0.11	2.6 ± 0.15	2.81 ± 0.068	
IQELRKLLKSLLLNYLE [MED7]	1.71 ± 0.056	1.24 ± 0.069	1.12 ± 0.12	1.04 ± 0.1
KQIDIPNFNVEIMQQKF [ECM29]	2.4 ± 0.25	2.5 ± 0.16	3.03 ± 0.11	3.11 ± 0.097
RHFWGLRVRGQHTKTTG [RPS18A]	1.81 ± 0.062	1.99 ± 0.087	1.77 ± 0.12	2.16 ± 0.056
LSNLSKDIKANLSSNVN [YCS4]	2.85 ± 0.05	3.03 ± 0.068	3.04 ± 0.06	2.93 ± 0.046
AAGVERLIFYPDEYEQL [PRE3]	2.96 ± 0.14	2.86 ± 0.13	3.1 ± 0.093	2.69 ± 0.16
ASFNDTFVHVTDLSGKE [RPS14A]	2.17 ± 0.097	1.36 ± 0.093	1.76 ± 0.22	1.15 ± 0.082
LSISVPSDVNIDVMKSQ [SNU114]	2.86 ± 0.057	2.84 ± 0.057	2.57 ± 0.053	2.78 ± 0.044
DCNSALDQLLVLEKKTR [RPN5]	2.31 ± 0.068	2.31 ± 0.1	2.22 ± 0.058	2.44 ± 0.083
QAPKQRRRTYRAHGRIN [RPL17A]	2.06 ± 0.29	2.64 ± 0.12	1.9 ± 0.18	2.09 ± 0.091
VVDRESDIPKTTVQVAE [PRE4]	2.6 ± 0.11	2.99 ± 0.1	2.8 ± 0.13	3.06 ± 0.076
PTSVKLLKTTVPIVSKK [POP3]	3.21 ± 0.1	2.94 ± 0.068	2.86 ± 0.083	3 ± 0.075
FELSFTGAPPYYYNTKI [YMR129W/POM152]	2.75 ± 0.089	1.99 ± 0.12	2.66 ± 0.15	3.21 ± 0.12
